# Assay results: patent publication US7541169B2, “Sulfotransferase sequence variants” (Mayo Foundation for Medical Education and Research, priority 2001, dated 2009)
# System: SULT1C1
# Assay: SULT1C1 enzyme activity assay: sulfate conjugation of 4-nitrophenol with 35S-PAPS, COS-1 cytosol of recombinant allozymes
# Format: biochemical, human
# Conditions: for Km: apparent Km for PAPS, in the presence of 10 mM 4-NP, six PAPS concentrations 0.0625 μM to 2 μM; for % WT activity: recombinant allozyme in COS-1 cytosol, 10 mM 4-NP, 0.4 μM 35S-PAPS, pH 7.4, percentage of wild type SULT1C1 enzyme activity; for activity relative to the reference (wild type) SULT1C1: statement in words
# Procedure: In some embodiments, activity of SULT1C1 polypeptides is altered relative to the reference SULT1C1. […] Other allozymes can have increased activity relative to the reference SULT1C1. Activity of SULT1C1 polypeptides can be assessed in vitro using a sulfate acceptor substrate such as 4-nitrophenol (4-NP, Sigma Chemical Co., St. Louis, Mo.) and a donor sulfate molecule such as PAPS. In general, recombinant SULT1C1 polypeptides can be incubated at 37° C. with 10 mM of sulfate acceptor substrate in a potassium phosphate buffer (5 mM, pH 7.4) and 0.4 μM labeled PAPS (e.g., ^35S-PAPS from New England Nuclear Life Science Products, Inc., Boston Mass.). Reactions can be stopped by precipitating PAPS and SULT1C1 polypeptide (e.g., with barium hydroxide, barium acetate, and zinc sulfate). After centrifugation of the reaction, radioactivity in the supernatant is assessed. SULT1C1 activity is expressed as nmoles of sulfate conjugated product formed per hour of incubation. See, Campbell, N. R. C. et al., Biochem. Pharmacol., 36:1435-1446 (1987).
# Other biochemical properties of allozymes, such as apparent Km values, also can be altered relative to the reference SULT1C1. Apparent Km values can be calculated, for example, by using the method of Wilkinson with a computer program written by Cleland. Wilkinson, Biochem. J., 80:324-332 (1961); and Cleland, Nature, 198:463-365 (1963). As described herein, the apparent Km values for PAPS vary 7-fold among the allozymes tested (Asp60Ala, Arg73Gln, Phe193Leu, Asp200Val, Thr239Ala, and Ser255Ala).
# COS-1 Cell Expression: Nine different SULT1C1 expression constructs were made using the p91023(B) expression vector. See, Wong et al., Science (1985) 228:810-815, for a description of the p91023(B) vector. Eight of the constructs were designed to express variant SULT1C1 polypeptides, while the remaining construct was designed to express a wild type SULT1C1. All SULT1C1 cDNA sequences used to create the expression constructs were created by site directed mutagenesis using the method described by Ho et al., Gene (1989) 77(l):51-9. Each SULT1C1 cDNA was amplified by PCR and subcloned into the EcoRI restriction site of the eukaryotic expression vector p91023(B). After subcloning, all inserts were sequenced to assure that no spurious nucleotide point mutations had been introduced during the PCR amplifications. […] As a control, a transfection was also performed with “empty” p91023(B), i.e., vector lacking an insert, to make it possible to correct for endogenous COS-1 cell SULT activity. The control plasmid pSV-β-galactosidase (Promega, Madison, Wis.) was cotransfected with each SULT1C1 construct to make it possible to correct for transfection efficiency. Two independent transfections, each consisting of three separate plates, were performed with each of the expression constructs. After 48 hours in culture, the transfected cells were harvested and high speed supernatant (HSS) cytosol preparations were prepared as described by Wood, T. C. et al., Biochem. Biophys. Res. Commun., 198:1119-1127 (1994). Aliquots of these cytosol preparations were stored at −80° C. prior to assay.
# Enzyme Assays: β-galactosidase activity in each of the COS-1 HSS preparations was measured with the β-galactosidase Enzyme Assay System (Promega, Madison, Wis.). SULT1C1 enzyme activity was measured with an assay that involves sulfate conjugation of a sulfate acceptor substrate, 4-nitrophenol (4-NP), in the presence of [^35S]-3′-phosphoadenosine-5′-phosphosulfate (PAPS), the sulfate donor for the reaction. See, Campbell, N. R. C. et al., Biochem. Pharmacol., 36:1435-1446 (1987). The HSS preparations of recombinant SULT1C1 variant proteins described above were used for the activity studies without any further purification. The protein concentration of each recombinant protein preparation was determined by the dye-binding method of Bradford with bovine serum albumin (BSA) as a standard. […]
Molecule,Km,% WT activity,activity relative to the reference (wild type) SULT1C1
Asp60Ala: SULT1C1 polypeptide having an alanine at amino acid residue 60 in place of aspartic acid (protein) MALTSDLGKQIKLKEVEGTLLQPATVDNWSQIQSFEAKPDDLLICTYPKAGTTWIQEIVAMIEQNGDVEKCQRAIIQHRHPFIEWARPPQPSGVEKAKAMPSPRILKTHLSTQLLPPSFWENNCKFLYVARNAKDCMVSYYHFQRMNHMLPDPGTWEEYFETFINGKVVWGSWFDHVKGWWEMKDRHQILFLFYEDIKRDPKHEIRKVMQFMGKKVDETVLDKIVQETSFEKMKENPMTNRSTVSKSILDQSISSFMRKGTVGDWKNHFTVAQNERFDEIYRRKMEGTSINFCMEL,4 ± 0.47 µM,13.9 ± 0.3%,reduced activity
Arg73Gln: SULT1C1 polypeptide having a glutamine at amino acid residue 73 in place of an arginine (protein) MALTSDLGKQIKLKEVEGTLLQPATVDNWSQIQSFEAKPDDLLICTYPKAGTTWIQEIVDMIEQNGDVEKCQQAIIQHRHPFIEWARPPQPSGVEKAKAMPSPRILKTHLSTQLLPPSFWENNCKFLYVARNAKDCMVSYYHFQRMNHMLPDPGTWEEYFETFINGKVVWGSWFDHVKGWWEMKDRHQILFLFYEDIKRDPKHEIRKVMQFMGKKVDETVLDKIVQETSFEKMKENPMTNRSTVSKSILDQSISSFMRKGTVGDWKNHFTVAQNERFDEIYRRKMEGTSINFCMEL,0.57 ± 0.15 µM,14.5 ± 1.9%,reduced activity
Asp200Val: SULT1C1 polypeptide having a valine at amino acid 200 in place of an aspartic acid (protein) MALTSDLGKQIKLKEVEGTLLQPATVDNWSQIQSFEAKPDDLLICTYPKAGTTWIQEIVDMIEQNGDVEKCQRAIIQHRHPFIEWARPPQPSGVEKAKAMPSPRILKTHLSTQLLPPSFWENNCKFLYVARNAKDCMVSYYHFQRMNHMLPDPGTWEEYFETFINGKVVWGSWFDHVKGWWEMKDRHQILFLFYEDIKRVPKHEIRKVMQFMGKKVDETVLDKIVQETSFEKMKENPMTNRSTVSKSILDQSISSFMRKGTVGDWKNHFTVAQNERFDEIYRRKMEGTSINFCMEL,1.2 ± 0.12 µM,48.1 ± 4.2%,reduced activity
Thr239Ala: SULT1C1 polypeptide having an alanine at amino acid 239 in place of a threonine (protein) MALTSDLGKQIKLKEVEGTLLQPATVDNWSQIQSFEAKPDDLLICTYPKAGTTWIQEIVDMIEQNGDVEKCQRAIIQHRHPFIEWARPPQPSGVEKAKAMPSPRILKTHLSTQLLPPSFWENNCKFLYVARNAKDCMVSYYHFQRMNHMLPDPGTWEEYFETFINGKVVWGSWFDHVKGWWEMKDRHQILFLFYEDIKRDPKHEIRKVMQFMGKKVDETVLDKIVQETSFEKMKENPMANRSTVSKSILDQSISSFMRKGTVGDWKNHFTVAQNERFDEIYRRKMEGTSINFCMEL,1.14 ± 0.11 µM,52.6 ± 1.7%,reduced activity
Phe193Leu: SULT1C1 polypeptide having a leucine residue at amino acid 193 in place of a phenylalanine (protein) MALTSDLGKQIKLKEVEGTLLQPATVDNWSQIQSFEAKPDDLLICTYPKAGTTWIQEIVDMIEQNGDVEKCQRAIIQHRHPFIEWARPPQPSGVEKAKAMPSPRILKTHLSTQLLPPSFWENNCKFLYVARNAKDCMVSYYHFQRMNHMLPDPGTWEEYFETFINGKVVWGSWFDHVKGWWEMKDRHQILFLLYEDIKRDPKHEIRKVMQFMGKKVDETVLDKIVQETSFEKMKENPMTNRSTVSKSILDQSISSFMRKGTVGDWKNHFTVAQNERFDEIYRRKMEGTSINFCMEL,2.95 ± 0.27 µM,39.3 ± 1.4%,reduced activity
Ser255Ala: SULT1C1 polypeptide having an alanine at amino acid 255 in place of a serine (protein) MALTSDLGKQIKLKEVEGTLLQPATVDNWSQIQSFEAKPDDLLICTYPKAGTTWIQEIVDMIEQNGDVEKCQRAIIQHRHPFIEWARPPQPSGVEKAKAMPSPRILKTHLSTQLLPPSFWENNCKFLYVARNAKDCMVSYYHFQRMNHMLPDPGTWEEYFETFINGKVVWGSWFDHVKGWWEMKDRHQILFLFYEDIKRDPKHEIRKVMQFMGKKVDETVLDKIVQETSFEKMKENPMTNRSTVSKSILDQSISAFMRKGTVGDWKNHFTVAQNERFDEIYRRKMEGTSINFCMEL,0.56 ± 0.06 µM,98.9 ± 5.9%,comparable to the reference SULT1C1
Asp200Val/ Thr239Ala: double variant SULT1C1 polypeptide with a valine at amino acid 200 and an alanine at amino acid 239 (protein) MALTSDLGKQIKLKEVEGTLLQPATVDNWSQIQSFEAKPDDLLICTYPKAGTTWIQEIVDMIEQNGDVEKCQRAIIQHRHPFIEWARPPQPSGVEKAKAMPSPRILKTHLSTQLLPPSFWENNCKFLYVARNAKDCMVSYYHFQRMNHMLPDPGTWEEYFETFINGKVVWGSWFDHVKGWWEMKDRHQILFLFYEDIKRVPKHEIRKVMQFMGKKVDETVLDKIVQETSFEKMKENPMANRSTVSKSILDQSISSFMRKGTVGDWKNHFTVAQNERFDEIYRRKMEGTSINFCMEL,1.82 ± 0.14 µM,49.3 ± 2.8%,reduced activity
Ser111Phe: SULT1C1 polypeptide having a phenylalanine at amino acid 111 in place of a serine (protein) MALTSDLGKQIKLKEVEGTLLQPATVDNWSQIQSFEAKPDDLLICTYPKAGTTWIQEIVDMIEQNGDVEKCQRAIIQHRHPFIEWARPPQPSGVEKAKAMPSPRILKTHLFTQLLPPSFWENNCKFLYVARNAKDCMVSYYHFQRMNHMLPDPGTWEEYFETFINGKVVWGSWFDHVKGWWEMKDRHQILFLFYEDIKRDPKHEIRKVMQFMGKKVDETVLDKIVQETSFEKMKENPMTNRSTVSKSILDQSISSFMRKGTVGDWKNHFTVAQNERFDEIYRRKMEGTSINFCMEL,–,0%,reduced activity
